Experimental findings from article PMC11203576 (International Journal of Molecular Sciences, 2024) are described below.

This experiment addresses T1, SARS-CoV-2 spike protein RBD, original (wild-type), sfGFP fusion (SARS-CoV-2, UniProt P0DTC2).
T1 construct: also called original RBD; original SARS-CoV-2 RBD
As to the kind of experiment: SPR; Biacore T200; […] (0.01 M HEPES, 0.15 M NaCl, 3 mM EDTA, 0.05% surfactant P20, […]. As to conditions: both partners purified. (SPR reads the build-up and loss of mass on a sensor chip optically.)

In general, Kd refers to the constant that tells how readily two partners part at equilibrium. A lower Kd goes with a tighter complex.

B1: Recombinant Microcystis viridis NIES-102 lectin (rMVL) (natural protein)
chain: MASYKVNIPAGPLWSNAEAQQVGPKIAAAHQGNFTGQWTTVVESAMSVVEVELQVENTGIHEFKTDVLAGPLWSNDEAQKLGPQIAASYGAEFTGQWRTIVEGVMSVIQIKYTF
notes: also called Microcystis viridis lectin
The molecule B1 showed a dissociation constant (Kd) of 2.08 µM.
